How the values were obtained:
[1] = mouse, in vivo, iv, 16 mg/kg
[2] = tested on: MIA PaCa-2 tumor; conditions: mouse, in vivo, iv, 16 mg/kg
Experimental: In order to reduce systemic error and individual difference, we constructed the subcutaneous pancreatic cancer model in mice for quantitatively calculating of the metabolic data.
All the animal experiments were performed in accordance with the Guide for the Care and Use of Laboratory Animals approved by the Committee for Animal Research of the National Center for Nanoscience and Technology. The MIA PaCa-2 tumor-bearing mice were intravenously injected with ICG, M1 and M2 (16 mg/kg), respectively for in vivo fluorescence imaging with in vivo spectrum imaging system. Finally, mice were sacrificed to collect the major organs and tumors for ex vivo fluorescence imaging.

[3] = target: T1, FAP-α (Homo sapiens, UniProt Q12884); test: FAP-α tailoring (cleavage) followed by HPLC and MALDI-TOF; assay type: biochemical; conditions: 100 μM molecule, FAP-α 50 μM, 12 h; buffer 50 mM Tris, 1 M NaCl, 1 mg/mL BSA, pH 7.5; HPLC (M3, M5), MALDI-TOF (M1)
T1 construct: purchased R&D SYSTEM
T1 sequence (Q12884 1-760): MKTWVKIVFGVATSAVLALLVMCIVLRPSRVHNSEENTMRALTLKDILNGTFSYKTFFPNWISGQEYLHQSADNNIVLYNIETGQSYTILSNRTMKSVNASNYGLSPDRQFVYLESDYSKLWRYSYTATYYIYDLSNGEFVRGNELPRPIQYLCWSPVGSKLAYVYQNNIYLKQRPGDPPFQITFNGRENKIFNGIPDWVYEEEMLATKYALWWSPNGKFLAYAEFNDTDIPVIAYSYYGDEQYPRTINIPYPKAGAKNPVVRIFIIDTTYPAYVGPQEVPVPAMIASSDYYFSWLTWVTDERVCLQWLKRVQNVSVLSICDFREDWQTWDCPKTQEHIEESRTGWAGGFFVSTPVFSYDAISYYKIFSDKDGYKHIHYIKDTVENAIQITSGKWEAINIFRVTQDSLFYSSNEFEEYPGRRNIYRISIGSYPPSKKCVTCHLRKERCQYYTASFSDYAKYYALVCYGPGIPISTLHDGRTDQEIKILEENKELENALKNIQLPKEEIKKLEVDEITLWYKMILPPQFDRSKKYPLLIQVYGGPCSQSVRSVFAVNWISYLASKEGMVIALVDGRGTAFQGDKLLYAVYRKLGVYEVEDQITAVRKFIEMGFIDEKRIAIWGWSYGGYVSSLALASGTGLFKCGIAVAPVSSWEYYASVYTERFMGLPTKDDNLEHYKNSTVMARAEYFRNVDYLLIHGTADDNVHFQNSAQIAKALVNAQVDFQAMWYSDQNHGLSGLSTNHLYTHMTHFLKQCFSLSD
Text: To further investigate the FAP-α specific tailoring and BIVA probe assembly in situ simultaneously (Fig. 4a), the high-performance liquid chromatography (HPLC), TEM, and matrix-assisted laser desorption/ionization time-of-flight (MALDI-TOF) mass spectrometry were applied for the characterizations purpose. To specify the cutting of the response tailoring motif (Gly-Pro-Ala), pre-synthesized molecules of R-M3, M3 and M5 were set as controls. […] Comparing the residues peaks with R-M3, the primary sharp peak at 27.4 min can be identified by the R-M3 control (27.6 min). […] The retention time of M1 after co-incubation with inactivated FAP-α was similar to that of M3 (Supplementary Fig. 14). After hydrolyzed by FAP-α, the residues of M1 in situ assembled into nanofibers structures under the complex buffer (Fig. 4c and Supplementary Fig. 15). […] In order to further evaluate the specificity of M1 for different enzymes, including FAP-α, pepsin, pancreatin, lipase, and BSA, we used ThT (Thioflavin T) as a detection probe (Fig. 4e).
Fig. 4 The FAP-α specific molecule tailoring and inducing in situ assembly. a The illustration the working mechanism of BIVA probe based on FAP-α catalytic hydrolysis. b HPLC curves of M3 and M5 after incubation with FAP-α in buffer. R-M3, M3 and M5 were synthesized controls. The TEM image (c), and the MALDI-TOF (d), results of M1 after tailoring by FAP-α in buffer, the red arrows represent the assembled fibrils of M1 after incubation with FAP-α. e The enzyme specificity of M1 in buffer. Buffer: 50 mM Tris, 1 M NaCl, 1 mg/mL, BSA, pH 7.5; Concentration of M1 and M3: 100 μM; Concentration of FAP-α: 50 μM; incubation time: 12 h. […]

[4] = Critical assembly concentration (CAC) by pyrene fluorescence probe; assay type: physicochemical
Text: In order to study the molecular design and their assembly behavior, we modular designed and synthesized seven molecules (Table 1), which respectively were BIVA probe: M1 (mPEG-GPAKLVFFGC(IR783)GRGD); the non- FAP-α tailoring molecule: M2 (mPEG-AGGKLVFFGC(IR783)GRGD) scrambled response tailoring motif of Gly-Pro-Ala with Ala-Gly-Gly; the non-labeling molecule of M1: M3 (mPEG-GPAKLVFFGCGRGD) removed IR783 labeling; FAP-α tailoring residue of M1: R-M1 (AKLVFFGC(IR783)GRGD); the non-targeting molecule: M4 (mPEG-GPAKLVFFGC(IR783)GDTG) scrambled targeting tailoring motif of Arg-Gly-Asp with Asp-Thr-Gly; the non-labeling molecule of M2: M5 (mPEG-AGGKLVFFGCGRGD) removed IR783 labeling; FAP-α tailoring residue of M3: R-M3 (AKLVFFGCGRGD). All the synthesized procedure (Supplementary Fig. 1) and characterizations of these seven molecules can be found in SI (Supplementary Figs. 2–8). […] Without IR783 labeling, molecules of M3 and M5 decreased the CAC value in solution relative to M1 and M2, which could be attributed to the proximity of the steric hindrance of hydrophilic IR783 to the self-assembly motif (Supplementary Fig. 9). […] The CAC was quantitatively calculated by fluorescence probe of pyrene.

Row | Compound | blood circulation half-life (t1/2) [1] | time to complete metabolic clearance [2] | tailoring (cleavage) by FAP-α [3] | Critical assembly concentration (CAC) ([4]; aqueous solution, analyzed based on pyrene fluorescence) | pyrene I1/I3 ([4]; conc 100 μM) | pyrene I1/I3 ([4]; conc 200 μM) | pyrene I1/I3 ([4]; conc 300 μM) | pyrene I1/I3 ([4]; conc 400 μM) | pyrene I1/I3 ([4]; conc 500 μM) | pyrene I1/I3 ([4]; conc 600 μM) | pyrene I1/I3 ([4]; conc 700 μM) | pyrene I1/I3 ([4]; conc 800 μM) | pyrene I1/I3 ([4]; conc 900 μM)
1 | CC1(C)C(/C=C/C=C/C=C/C=C2\N(CCCCS(=O)(=O)O)c3ccc4ccccc4c3C2(C)C)=[N+](CCCCS(=O)(=O)[O-])c2ccc3ccccc3c21 [ICG, indocyanine green] | 2.5 ± 0.5 min | ≤ 8 h |  |  |  |  |  |  |  |  |  |  | 
2 | mPEG-AGGKLVFFGCGRGD [M5, the non-labeling molecule of M2] |  |  | no change of the retention peak | >332.7 µM | 1.152 | 1.176 | 1.178 | 1.119 | 1.173 | 1.077 | 1.029 | 1.021 | 0.975

— paper PMC8776730 (Nature Communications, 2022)
